The assay has as its target Biotinylated D/NP_(TAIL) fused to a biotinylation motif (Influenza D virus, strain …, UniProt A0A0E3VZU8 505-552). Nature of the assay: SPR. On the technique in general: Surface plasmon resonance follows binding to a sensor surface in real time, without labels.

B1: human importin-α7 without its IBB domain (amino-acids 58 to 536) (domain or fragment)
chain: not shown
The term koff denotes the first-order rate constant of dissociation. Read a high koff as fast dissociation. Molecule B1 showed a koff of 0.09 s⁻¹.
